Reference: patent US20250179197A1 (DIAGONAL THERAPEUTICS, published 2025)

T1: IL-18 receptor (IL-18Rα and IL-18Rβ) on HEK-Blue IL-18 cells (UniProt Q13478 19-541; O95256 20-599, limits assumed)
T1 sequence (looked up) 1: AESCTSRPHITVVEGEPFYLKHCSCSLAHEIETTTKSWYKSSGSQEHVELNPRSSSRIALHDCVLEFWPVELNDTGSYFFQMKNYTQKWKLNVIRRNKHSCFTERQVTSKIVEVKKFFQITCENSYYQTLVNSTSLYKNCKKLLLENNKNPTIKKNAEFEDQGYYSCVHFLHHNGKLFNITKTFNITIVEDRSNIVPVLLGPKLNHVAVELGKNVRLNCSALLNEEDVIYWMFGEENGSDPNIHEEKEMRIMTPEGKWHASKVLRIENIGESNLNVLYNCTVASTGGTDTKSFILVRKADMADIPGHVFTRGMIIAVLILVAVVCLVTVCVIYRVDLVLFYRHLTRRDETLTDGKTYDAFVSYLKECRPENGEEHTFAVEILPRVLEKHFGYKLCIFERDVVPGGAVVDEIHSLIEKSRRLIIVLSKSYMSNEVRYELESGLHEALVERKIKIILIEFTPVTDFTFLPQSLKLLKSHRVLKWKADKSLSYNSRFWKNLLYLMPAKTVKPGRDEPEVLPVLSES
T1 sequence (looked up) 2: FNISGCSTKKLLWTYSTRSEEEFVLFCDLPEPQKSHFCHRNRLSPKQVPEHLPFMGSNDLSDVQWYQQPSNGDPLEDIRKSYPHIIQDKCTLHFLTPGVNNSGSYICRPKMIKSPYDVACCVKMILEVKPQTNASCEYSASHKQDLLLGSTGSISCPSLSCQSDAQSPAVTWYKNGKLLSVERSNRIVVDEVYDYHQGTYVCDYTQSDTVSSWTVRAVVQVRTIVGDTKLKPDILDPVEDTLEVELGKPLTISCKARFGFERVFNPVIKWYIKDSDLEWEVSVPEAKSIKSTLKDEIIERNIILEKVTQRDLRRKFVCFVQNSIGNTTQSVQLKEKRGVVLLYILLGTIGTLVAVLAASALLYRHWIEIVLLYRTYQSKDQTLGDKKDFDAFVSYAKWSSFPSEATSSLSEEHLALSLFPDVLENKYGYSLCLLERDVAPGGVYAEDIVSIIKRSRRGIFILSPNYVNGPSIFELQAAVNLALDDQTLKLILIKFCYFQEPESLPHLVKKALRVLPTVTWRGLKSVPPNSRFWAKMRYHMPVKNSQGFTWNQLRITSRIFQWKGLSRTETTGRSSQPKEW

T2: IL-18 receptor (IL-18Rα/IL-18Rβ) on human PBMCs (human, UniProt Q13478 19-541; O95256 20-599)
T2 sequence (looked up) 1: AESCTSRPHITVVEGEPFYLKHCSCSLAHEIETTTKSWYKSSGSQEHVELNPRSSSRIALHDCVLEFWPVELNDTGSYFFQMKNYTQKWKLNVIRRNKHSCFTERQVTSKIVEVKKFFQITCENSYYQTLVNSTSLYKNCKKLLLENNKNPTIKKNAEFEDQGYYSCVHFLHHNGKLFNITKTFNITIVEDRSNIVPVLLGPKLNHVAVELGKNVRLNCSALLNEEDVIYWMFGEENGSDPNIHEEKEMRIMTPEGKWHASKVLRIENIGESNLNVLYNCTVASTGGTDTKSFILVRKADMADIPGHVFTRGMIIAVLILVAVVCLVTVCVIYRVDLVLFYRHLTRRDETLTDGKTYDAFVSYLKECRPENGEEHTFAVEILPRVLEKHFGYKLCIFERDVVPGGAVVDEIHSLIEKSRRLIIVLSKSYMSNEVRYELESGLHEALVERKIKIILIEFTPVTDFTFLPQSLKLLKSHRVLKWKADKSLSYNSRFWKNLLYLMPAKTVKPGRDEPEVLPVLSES
T2 sequence (looked up) 2: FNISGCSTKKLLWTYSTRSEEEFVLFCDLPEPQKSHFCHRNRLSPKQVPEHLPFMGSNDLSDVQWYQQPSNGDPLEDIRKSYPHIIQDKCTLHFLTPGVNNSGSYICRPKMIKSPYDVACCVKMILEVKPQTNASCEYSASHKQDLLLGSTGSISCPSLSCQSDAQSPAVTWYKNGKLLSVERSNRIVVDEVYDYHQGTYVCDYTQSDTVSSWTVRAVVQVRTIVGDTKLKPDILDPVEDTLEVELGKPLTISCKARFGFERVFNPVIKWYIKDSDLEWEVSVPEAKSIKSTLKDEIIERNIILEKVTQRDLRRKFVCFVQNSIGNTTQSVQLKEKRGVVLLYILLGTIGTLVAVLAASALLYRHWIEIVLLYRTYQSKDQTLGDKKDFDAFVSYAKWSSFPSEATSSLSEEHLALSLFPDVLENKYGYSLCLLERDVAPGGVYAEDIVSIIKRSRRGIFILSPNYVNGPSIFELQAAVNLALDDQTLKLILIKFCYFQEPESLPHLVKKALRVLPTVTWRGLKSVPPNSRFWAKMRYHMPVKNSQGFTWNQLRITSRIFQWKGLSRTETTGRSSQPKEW


What was measured:
Assay in all cases: cell-based or functional assay
[1] = biological target: T1, IL-18 receptor (IL-18Rα and IL-18Rβ) on …
[2] = biological target: T2, IL-18 receptor (IL-18Rα/IL-18Rβ) on …
[3] = biological target: T1, IL-18 receptor (IL-18Rα and IL-18Rβ) on …; remark: listed apart in the source

HEK-Blue: Abs 405 at 100 nM [1] [absorbance]	HEK-Blue: Fold over background [1] [fold]	Calculated maximum induction of IFN-γ after 24 hours, donor 1 [2]	Calculated maximum induction of IFN-γ after 24 hours, donor 2 [2]	Calculated maximum induction of IFN-γ after 24 hours, donor 3 [2]	Calculated maximum induction of IFN-γ after 24 hours, donor 4 [2]	Calculated maximum induction of IFN-γ after 24 hours, donor 5 [2]	Calculated maximum induction of IFN-γ after 24 hours, donor 6 [2]	EC50 (read off the curve) [3] [nM]	Binder
1.34	7.2	16000	1700	22000	17000	15000	3000	–	DGL346 (bispecific antibody) chain 1: EVQLVESGGGLIQPGGSLRLSCAASGSISSRDTMGWYRQAPGKGREMVSVISSSGNTNYADSVLGRFTISRDNAKNTVYLQMNALRAEDTAVYKCYAHRTYGVDYWGQGTLVTVSSGGGSQVQLVESGGGLVQPGGSLRLSCAASGRTFSSYTMGWFRQAPGKGREFVSAISWSAGRTYYADSVKGRFTISRDNAKNTVYLQMNALRAEDTAVYYCAAEEAPDWAPIDCSGYGCLSLYDYWGQGTLVTVSDKTHTCPPCPAPEAAGAPSVFLFPPKPKDTLYITREPEVTCVVVDVSHEDPEVKFNWYVDGVEVHNAKTKPREEQYNSTYRVVSVLTVLHQDWLNGKEYKCKVSNKALPAPIEKTISKAKGQPREPQVCTLPPSRDELTKNQVSLSCAVKGFYPSDIAVEWESNGQPENNYKTTPPVLDSDGSFFLVSKLTVDKSRWQQGNVFSCSVMHEALHNHYTQKSLSLSPG chain 2: DKTHTCPPCPAPEAAGAPSVFLFPPKPKDTLYITREPEVTCVVVDVSHEDPEVKFNWYVDGVEVHNAKTKPREEQYNSTYRVVSVLTVLHQDWLNGKEYKCKVSNKALPAPIEKTISKAKGQPREPQVYTLPPCRDELTKNQVSLWCLVKGFYPSDIAVEWESNGQPENNYKTTPPVLDSDGSFFLYSKLTVDKSRWQQGNVFSCSVMHEALHNHYTQKSLSLSPG
0.9	4.9	13000	620	17000	9300	1500	1300	–	DGL336 (bispecific antibody, V domains shown) V domain 1: EVQLLESGGGLVQPGGSLRLSCAASGRTFSKHAMGWFRQAPGKGLEFVSAIDWSGGSTYYADSVKGRFTISRDNSKNTVYLQMNSLRAEDTAVYYCAADSYTDYAQLWLPELESEYDYWGQGTLVTVSS V domain 2: EVQLVESGGGLIQPGGSLRLSCAASGSISSRDTMGWYRQAPGKGREMVSVISSSGNTNYADSVLGRFTISRDNAKNTVYLQMNALRAEDTAVYKCYAHRTYGVDYWGQGTLVTVSS
1.87	10.1	16000	1300	22000	19000	15000	2400	~1	DGL620 (bispecific antibody) chain 1: EVQLLESGGGLVQPGGSLRLSCAASGRTFSKHAMGWFRQAPGKGLEFVSAIDWSGGSTYYADSVKGRFTISRDNSKNTVYLQMNSLRAEDTAVYYCAADSYTDYAQLWLPELESEYDYWGQGTLVTVSSCPPCPAPEAAGAPSVFLFPPKPKDTLYITREPEVTCVVVDVSHEDPEVKFNWYVDGVEVHNAKTKPREEQYNSTYRVVSVLTVLHQDWLNGKEYKCKVSNKALPAPIEKTISKAKGQPREPQVCTLPPSRDELTKNQVSLSCAVKGFYPSDIAVEWESNGQPENNYKTTPPVLDSDGSFFLVSKLTVDKSRWQQGNVFSCSVMHEALHNHYTQKSLSLSPG chain 2: QLQLLESGGGLVQAGGSLRLSCAASRSITFSHNVMGWYRQAPGKGRELVSSIGSGGSTNYVDSVKGRFTISRDNSKKTLYLQMNSLRAEDTAVYYCGVVVGVYRGSLGQGTLVTVSSCPPCPAPEAAGAPSVFLFPPKPKDTLYITREPEVTCVVVDVSHEDPEVKFNWYVDGVEVHNAKTKPREEQYNSTYRVVSVLTVLHQDWLNGKEYKCKVSNKALPAPIEKTISKAKGQPREPQVYTLPPCRDELTKNQVSLWCLVKGFYPSDIAVEWESNGQPENNYKTTPPVLDSDGSFFLYSKLTVDKSRWQQGNVFSCSVMHEALHNHYTQKSLSLSPG
